Source: the supplement of paper PMC11316812
± gives the standard deviation of the averaged measurements.

Tests used:
hTERT-HMEC = experiment: percentage of EdU-negative (G0-arrested) nuclei per well, 72 h; higher = more G0 arrest; conditions: reference: sequence is the full UniProt precursor, the tested protein was the secreted form or ectodomain
MCF7 = experiment: as above; conditions: reference: sequence is the full UniProt precursor, the tested protein was the secreted form or ectodomain
[1] = protein concentration 0.0308571 µM
[2] = protein concentration 0.308571 µM
[3] = protein concentration 0.03125 µM
[4] = protein concentration 0.3125 µM
[5] = protein concentration 0.00775 µM
[6] = protein concentration 0.0775 µM
[7] = protein concentration 0.0225 µM
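Also: secreted proteins added to cultured cells, EdU pulse at the end, nuclei found by Hoechst imaging, EdU status from nuclear versus surrounding ring intensity ratio, PBS as neutral control.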

**Q.** For “MPLGLLWLGLALLGALHAQAQDSTSDLIPAPPLSKVPLQQNFQDNQFQGKWYVVGLAGNAILREDKDPQKMYATIYELKEDKSYNVTSVLFRKKKCDYWIRTFVPGCQPGEFTLGNIKSYPGLTSYLVRVVSTNYNQHAMVFFKKVSQNREYFKITLYGRTKELTSELKENFIRFSKSLGLPENHIVFPVPIDQCIDG”, which “percentage of EdU-negative” value (hTERT-HMEC; [1]) is on record?
**A.** 4.56 ± 0.62%

**Q.** What about the “percentage of EdU-negative” value (hTERT-HMEC; [2]) of the same sequence?
**A.** 8.76 ± 0.27%

**Q.** And the “percentage of EdU-negative” value (MCF7; [1])?
**A.** 26.8 ± 1.9%

**Q.** What about the “percentage of EdU-negative” value (MCF7; [2]) of the same sequence?
**A.** 28.2 ± 1.9%

**Q.** What does the source list for “MPLLWLRGFLLASCWIIVRSSPTPGSEGHSAAPDCPSCALAALPKDVPNSQPEMVEAVKKHILNMLHLKKRPDVTQPVPKAALLNAIRKLHVGKVGENGYVEIEDDIGRRAEMNELMEQTSEIITFAESGTARKTLHFEISKEGSDLSVVERAEVWLFLKVPKANRTRTKVTIRLFQQQKHPQGSLDTGEEAEEVGLKGERSELLLSEKVVDARKSTWHVFPVSSSIQRLLDQGKSSLDVRIACEQCQESGASLVLLGKKKKKEEEGEGKKKGGGEGGAGADEEKEQSHRPFLMLQARQSEDHPHRRRRRGLECDGKVNICCKKQFFVSFKDIGWNDWIIAPSGYHANYCEGECPSHIAGTSGSSLSFHSTVINHYRMRGHSPFANLKSCCVPTKLRPMSMLYYDDGQNIIKKDIQNMIVEECGCS”?
**A.** percentage of EdU-negative (hTERT-HMEC; [3]): 5.64 ± 0.18%; percentage of EdU-negative (hTERT-HMEC; [4]): 5.29 ± 1.4%; percentage of EdU-negative (MCF7; [3]): 26.6 ± 1.6%; percentage of EdU-negative (MCF7; [4]): 27.8 ± 1.4%

**Q.** How did the “percentage of EdU-negative” value (hTERT-HMEC; [5]) turn out when “MPLRDETLREVWASDSGHEEESLSPEAPRRPKQRPAPAQRLRKKRTEAPESPCPTGSKPRKPGAGRTGRPREEPSPDPAQARAPQTVYARFLRDPEAKKRDPRETFLVARAPDAEDEEEEEEEDEEDEEEEAEEKKEKILLPPKKPLREKSSADLKERRAKAQGPRGDLGSPDPPPKPLRVRNKEAPAGEGTKMRKTKKKGSGEADKDPSGSPASARKSPAAMFLVGEGSPDKKALKKKGTPKGARKEEEEEEEAATVIKKSNQKGKAKGKGKKKAKEERAPSPPVEVDEPREFVLRPAPQGRTVRCRLTRDKKGMDRGMYPSYFLHLDTEKKVFLLAGRKRKRSKTANYLISIDPTNLSRGGENFIGKLRSNLLGNRFTVFDNGQNPQRGYSTNVASLRQELAAVIYETNVLGFRGPRRMTVIIPGMSAENERVPIRPRNASDGLLVRWQNKTLESLIELHNKPPVWNDDSGSYTLNFQGRVTQASVKNFQIVHADDPDYIVLQFGRVAEDAFTLDYRYPLCALQAFAIALSSFDGKLACE” was run?
**A.** 5.21 ± 0.36%

**Q.** And the “percentage of EdU-negative” value (hTERT-HMEC; [6])?
**A.** 6.67 ± 0.59%

**Q.** What about the “percentage of EdU-negative” value (MCF7; [5]) of the same sequence?
**A.** 25.1 ± 0.28%

**Q.** And the “percentage of EdU-negative” value (MCF7; [6])?
**A.** 25.5 ± 0.95%

**Q.** With “MPLSLGAEMWGPEAWLLLLLLLASFTGRCPAGELETSDVVTVVLGQDAKLPCFYRGDSGEQVGQVAWARVDAGEGAQELALLHSKYGLHVSPAYEGRVEQPPPPRNPLDGSVLLRNAVQADEGEYECRVSTFPAGSFQARLRLRVLVPPLPSLNPGPALEEGQGLTLAASCTAEGSPAPSVTWDTEVKGTTSSRSFKHSRSAAVTSEFHLVPSRSMNGQPLTCVVSHPGLLQDQRITHILHVSFLAEASVRGLEDQNLWHIGREGAMLKCLSEGQPPPSYNWTRLDGPLPSGVRVDGDTLGFPPLTTEHSGIYVCHVSNEFSSRDSQVTVDVLDPQEDSGKQVDLVSASVVVVGVIAALLFCLLVVVVVLMSRYHRRKAQQMTQKYEEELTLTRENSIRRLHSHHTDPRSQPEESVGLRAEGHPDSLKDNSSCSVMSEEPEGRSYSTLTTVREIETQTELLSPGSGRAEEEEDQDEGIKQAMNHFVQENGTLRAKPTGNGIYINGRGHLV [Q96NY8]” as the sequence, how does the “percentage of EdU-negative” value (hTERT-HMEC; [7]) read?
**A.** 4.77 ± 0.36%

**Q.** And the “percentage of EdU-negative” value (hTERT-HMEC; protein concentration 0.225 µM)?
**A.** 5.65 ± 0.22%

**Q.** What about the “percentage of EdU-negative” value (MCF7; [7]) of the same sequence?
**A.** 27.6 ± 2%

**Q.** What about the “percentage of EdU-negative” value (MCF7; protein concentration 0.225 µM) of the same sequence?
**A.** 27.8 ± 0.29%

**Q.** Which results are given for “MPMASPQTLVLYLLVLAVTEAWGQEAVIPGCHLHPFNVTVRSDRQGTCQGSHVAQACVGHCESSAFPSRYSVLVASGYRHNITSVSQCCTISGLKKVKVQLQCVGSRREELEIFTARACQCDMCRLSRY [Q96T91]”?
**A.** percentage of EdU-negative (hTERT-HMEC; [7]): 6.3 ± 1.5%; percentage of EdU-negative (hTERT-HMEC; protein concentration 0.225 µM): 4.45 ± 1.1%; percentage of EdU-negative (MCF7; [7]): 24.4 ± 0.81%; percentage of EdU-negative (MCF7; protein concentration 0.225 µM): 22 ± 2.1%

**Q.** For “MPMFIVNTNVPRASVPDGFLSELTQQLAQATGKPPQYIAVHVVPDQLMAFGGSSEPCALCSLHSIGKIGGAQNRSYSKLLCGLLAERLRISPDRVYINYYDMNAANVGWNNSTFA”, which “percentage of EdU-negative” value (hTERT-HMEC; [7]) is on record?
**A.** 4.84 ± 1.4%

**Q.** What about the “percentage of EdU-negative” value (hTERT-HMEC; protein concentration 0.225 µM) of the same sequence?
**A.** 6.38 ± 1.7%

**Q.** What about the “percentage of EdU-negative” value (MCF7; [7]) of the same sequence?
**A.** 24.4 ± 1.2%

**Q.** What about the “percentage of EdU-negative” value (MCF7; protein concentration 0.225 µM) of the same sequence?
**A.** 26.3 ± 2%

**Q.** Which results are given for “MPMGSLQPLATLYLLGMLVASCLGRLSWYDPDFQARLTRSNSKCQGQLEVYLKDGWHMVCSQSWGRSSKQWEDPSQASKVCQRLNCGVPLSLGPFLVTYTPQSSIICYGQLGSFSNCSHSRNDMCHSLGLTCLEPQKTTPPTTRPPPTTTPEPTAPPRLQLVAQSGGQHCAGVVEFYSGSLGGTISYEAQDKTQDLENFLCNNLQCGSFLKHLPETEAGRAQDPGEPREHQPLPIQWKIQNSSCTSLEHCFRKIKPQKSGRVLALLCSGFQPKVQSRLVGGSSICEGTVEVRQGAQWAALCDSSSARSSLRWEEVCREQQCGSVNSYRVLDAGDPTSRGLFCPHQKLSQCHELWERNSYCKKVFVTCQDPNPAGLAAGTVASIILALVLLVVLLVVCGPLAYKKLVKKFRQKKQRQWIGPTGMNQNMSFHRNHTATVRSHAENPTASHVDNEYSQPPRNSHLSAYPALEGALHRSSMQPDNSSDSDYDLHGAQRL”?
**A.** percentage of EdU-negative (hTERT-HMEC; [7]): 5.29 ± 0.99%; percentage of EdU-negative (hTERT-HMEC; protein concentration 0.225 µM): 5.13 ± 0.33%; percentage of EdU-negative (MCF7; [7]): 24.9 ± 1.4%; percentage of EdU-negative (MCF7; protein concentration 0.225 µM): 26 ± 3.2%
